The data set deals with Pab1 RRM1-RRM2 (Saccharomyces cerevisiae, UniProt P04147 38-203). Kind of data set: EMSA; protein titration up to 5000 nM; EMSA: 1x binding buffer (from 5x: 50 mM Tris-HCl pH 7.5, 750 mM KCl, 0.5 mM EDTA, 0.5 mM DTT) = 10 mM Tris-HCl, 150 mM KCl, 0.1 mM EDTA, 0.1 mM DTT, plus protein buffer (20 mM Tris-HCl pH 7.4, 100 mM KOAc, 2 mM MgOAc, 10% glycerol); 20 ul, 30 C, 30 min; 10% native PAGE, 0.4x TBE, 4 C. Conditions: protein: recombinant; tags: GST (pGEX-4T-1), removed with thrombin; label: Cy5 at both ends (as named); single strand. In general terms: In EMSA bound probe runs differently from free probe, usually more slowly.
Sequence of Pab1 RRM1-RRM2 (P04147 38-203): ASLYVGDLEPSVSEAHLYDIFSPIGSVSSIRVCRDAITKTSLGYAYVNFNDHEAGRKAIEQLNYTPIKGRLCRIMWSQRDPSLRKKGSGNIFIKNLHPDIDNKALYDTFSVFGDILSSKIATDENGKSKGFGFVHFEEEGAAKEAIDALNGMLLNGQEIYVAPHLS

From publication PMC9867979, “Pab1 acetylation at K131 decreases stress granule formation in Saccharomyces cerevisiae” come the findings set out here.

Regarding AAAAAAAAAAAAAAAAAAAA (ssRNA) [Cy5-Poly(A)20-Cy5], the binding result is “binds”.
